# Data published in article PMC11178655, “Dosimetry and pharmacokinetics of [^177Lu]Lu-satoreotide tetraxetan in patients with progressive neuroendocrine tumours” (European Journal of Nuclear Medicine and Molecular Imaging, 2024).
# Where a SMILES comes first, the peptide text is derived from it. Bridges are numbered along the chain shown (N, C = ends). [ ]: non-standard residue; d: D form. The star is where a group is joined. DOTA = O=C(O)CN1CCN(CC(=O)O)CCN(CC(=O)*)CCN(CC(=O)O)CC1; dPhe(4-NHCONH2) = NC(=O)Nc1ccc(C[C@@H](N)C(=O)O)cc1; Dihydroorotyl(S) = O=C1C[C@@H](C(=O)*)NC(=O)N1; Phe(4-Cl) = N[C@@H](Cc1ccc(Cl)cc1)C(=O)O; Phe(4-NH2) = Nc1ccc(C[C@H](N)C(=O)O)cc1
# What was measured:
# [1] = system: patients with progressive, SSTR-positive NETs; assay: Model-based organ dosimetry, OLINDA/EXM version 1.0 (part B, first cycle); assay type: in vivo, human; conditions: OLINDA/EXM 1.0, part B, median
# Method: Patient-specific dosimetry calculations were performed after each treatment cycle in both parts A and B, using the absorbed dose calculation features of the NUKDOS software for image-based dosimetry calculations. The NUKDOS software was chosen as it allowed for an integral approach to organ dosimetry (including image quantification, time-activity curve-fitting and dosimetry calculation). For the bone marrow, both image-based and blood-based calculations were performed in part A [28, 29]. In part B, only image-based bone marrow dosimetry was performed. Organ Level INternal Dose Assessment/EXponential Modelling (OLINDA/EXM) version 1.0 software, the most widely used version at the time of the study, was used to perform model-based dosimetry calculations, which were only performed after the first [^177Lu]Lu-satoreotide tetraxetan cycle for patients in part B. To generate organ-specific absorbed doses, TIACs were used as input data. Full details on OLINDA/EXM software settings and organ-specific TIAC calculation methods are provided in the Supplementary Information.
# Patient-specific dosimetry calculations were performed according to European Association of Nuclear Medicine Dosimetry Guidance after each treatment cycle in both parts A and B, using the absorbed dose calculation features of the NUKDOS software (i.e., integration of the time-activity curves, calculation of the absorbed dose). Model-based dosimetry calculations were only performed after the first [^177Lu]Lu-satoreotide tetraxetan cycle and for patients in part B. To generate organ-specific absorbed doses, TIACs were used as input data in the Organ Level INternal Dose Assessment/EXponential Modelling (OLINDA/EXM) software version 1.0, which was granted Food and Drug Administration 510(k) clearance in June 2004. The following settings were applied: ^177Lu isotope, no bladder voiding model, adult male or female phantom. As the OLINDA/EXM software makes no distinction between the right and left kidneys, their TIACs were summed. In case biokinetic data were available for one kidney only, the kidney TIAC value was doubled. For the bone marrow, the patient-specific mass of the analysed vertebrae was used for upscaling image-based TIAC values according to the OLINDA/EXM phantom gender-specific masses (mBone marrow=1,120 g for males and 1,300 g for females):
# The kidney, spleen, liver, and bone marrow TIACs were subtracted from the patient’s whole-body TIAC to obtain the TIAC of the remainder of the body.
# [2] = system: patients with progressive, SSTR-positive NETs; conditions: cited from earlier work
# Text: Here, we fully explore the biodistribution and dosimetry of [^177Lu]Lu-satoreotide tetraxetan in a dosage-finding, phase I/II study (NCT02592707; registered October 30, 2015) of 40 patients with progressive, SSTR-positive NETs treated with [^177Lu]Lu-satoreotide tetraxetan. A plain language summary of this publication can be found in the Supplementary Information. […] Acute haematological toxicity may be a dose-limiting factor for [^177Lu]Lu-satoreotide tetraxetan, and for ^177Lu-labelled somatostatin analogues in general. There is limited correlation between absorbed radiation doses to the bone marrow and development of haematologic toxicity. Therefore, it is important to carefully monitor hematological parameters during ...
smiles,measurement,setting,value
"C[C@@H](O)[C@@H]1NC(=O)[C@H](CCCCN)NC(=O)[C@@H](Cc2ccc(NC(N)=O)cc2)NC(=O)[C@H](Cc2ccc(NC(=O)[C@@H]3CC(=O)NC(=O)N3)cc2)NC(=O)[C@H](NC(=O)[C@H](Cc2ccc(Cl)cc2)NC(=O)CN2CCN(CC(=O)O)CCN(CC(=O)O)CCN(CC(=O)O)CC2)CSSC[C@@H](C(=O)N[C@H](Cc2ccc(O)cc2)C(N)=O)NC1=O [[^177Lu]Lu-satoreotide tetraxetan, metal not drawn] ({DOTA}-[Phe(4-Cl)][dC][Phe(4-NH2)](Dihydroorotyl(S))[dPhe(4-NHCONH2)]KTC[dY]-NH2; disulfide 2-7 (inferred); C-terminus assumed)","Calculated absorbed dose for 3 cycles of 4.5 GBq each, Red marrow",[1]; N = 18,1.47 Gy
same,"Calculated absorbed dose for 3 cycles of 4.5 GBq each, Spleen",[1]; N = 18,8.78 Gy
same,"Calculated absorbed dose for 3 cycles of 4.5 GBq each, Adrenals",[1]; N = 24,1.03 Gy
same,"Calculated absorbed dose for 3 cycles of 4.5 GBq each, Brain",[1]; N = 24,0.96 Gy
same,"Calculated absorbed dose for 3 cycles of 4.5 GBq each, Breasts",[1]; N = 24,0.95 Gy
same,"Calculated absorbed dose for 3 cycles of 4.5 GBq each, Gallbladder wall",[1]; N = 24,1.02 Gy
same,"Calculated absorbed dose for 3 cycles of 4.5 GBq each, Heart wall",[1]; N = 24,0.99 Gy
same,"Calculated absorbed dose for 3 cycles of 4.5 GBq each, Kidneys",[1]; N = 24,14.18 Gy
same,"Calculated absorbed dose for 3 cycles of 4.5 GBq each, Lungs",[1]; N = 24,0.98 Gy
same,"Calculated absorbed dose for 3 cycles of 4.5 GBq each, Muscle",[1]; N = 24,0.97 Gy
same,"Calculated absorbed dose for 3 cycles of 4.5 GBq each, Osteogenic cells",[1]; N = 24,3.96 Gy
same,"Calculated absorbed dose for 3 cycles of 4.5 GBq each, Ovaries",[1]; N = 24,1.00 Gy
same,"Calculated absorbed dose for 3 cycles of 4.5 GBq each, Pancreas",[1]; N = 24,1.05 Gy
same,"Calculated absorbed dose for 3 cycles of 4.5 GBq each, Skin",[1]; N = 24,0.93 Gy
same,"Calculated absorbed dose for 3 cycles of 4.5 GBq each, Small intestine",[1]; N = 24,1.00 Gy
same,"Calculated absorbed dose for 3 cycles of 4.5 GBq each, Stomach wall",[1]; N = 24,1.01 Gy
same,"Calculated absorbed dose for 3 cycles of 4.5 GBq each, Thymus",[1]; N = 24,0.98 Gy
same,"Calculated absorbed dose for 3 cycles of 4.5 GBq each, Thyroid",[1]; N = 24,0.96 Gy
same,"Calculated absorbed dose for 3 cycles of 4.5 GBq each, Total body",[1]; N = 24,1.08 Gy
same,"Calculated absorbed dose for 3 cycles of 4.5 GBq each, Liver","[1]; N = 24, may be an underestimation",1.07 Gy
same,"Calculated absorbed dose for 3 cycles of 4.5 GBq each, Uterus",[1]; female patients N = 11,1.13 Gy
same,"Calculated absorbed dose for 3 cycles of 4.5 GBq each, Testes",[1]; male patients N = 13,0.72 Gy
same,"Calculated absorbed dose for 3 cycles of 4.5 GBq each, LLI wall","[1]; lower large intestine, N = 24",1.00 Gy
same,"Calculated absorbed dose for 3 cycles of 4.5 GBq each, ULI wall","[1]; upper large intestine, N = 24",1.01 Gy
same,"Calculated absorbed dose for 3 cycles of 4.5 GBq each, UB wall","[1]; urinary bladder, N = 24",0.99 Gy
same,Grade 3/4 kidney toxicity,[2]; 40 patients,no reported grade 3/4 kidney toxicity
same,Grade 3/4 treatment-related lymphopenia,[2]; 40 patients,7.5 % of patients
same,Disease control rate at 12 months,[2],94.7%
